Results from patent US20250223354A1 (BIOTHEUS, published 2025).

T1: human TIGIT expressed on cells (human, UniProt Q495A1 22-244)
T1 construct: whole, on cells; cDNA encoding human TIGIT in pCHO1.0 for CHO cells; also called CHO-huTIGIT cells
T1 sequence (looked up): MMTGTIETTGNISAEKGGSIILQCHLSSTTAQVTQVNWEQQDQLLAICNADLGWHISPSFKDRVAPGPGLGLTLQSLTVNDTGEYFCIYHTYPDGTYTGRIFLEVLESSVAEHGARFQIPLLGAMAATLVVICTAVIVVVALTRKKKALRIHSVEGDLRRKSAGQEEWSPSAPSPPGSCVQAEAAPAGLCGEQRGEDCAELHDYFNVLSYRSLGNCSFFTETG

T2: mouse TIGIT overexpressed on CHO cells (mouse, UniProt P86176 29-249)
T2 construct: whole, on cells; also called CHO-muTIGIT cells
T2 sequence (looked up): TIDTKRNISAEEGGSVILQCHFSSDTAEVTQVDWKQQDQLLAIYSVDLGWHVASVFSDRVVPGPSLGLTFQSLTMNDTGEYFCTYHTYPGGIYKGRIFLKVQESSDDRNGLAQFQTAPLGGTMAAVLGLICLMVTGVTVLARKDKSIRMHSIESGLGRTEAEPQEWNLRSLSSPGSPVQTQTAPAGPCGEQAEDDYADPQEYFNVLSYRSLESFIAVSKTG


What was measured:
[1] = molecular target: T1, human TIGIT expressed on cells; assay: flow cytometry on activated human primary T cells (TIGIT), readout positive cell (%); unit from the concentration axis
From the text: The binding activity of the anti-TIGIT antibody of the present invention to TIGIT on the surface of activated T cells was detected based on the flow cytometry detection method.
Specifically, human PBMC were sorted according to the experimental protocol provided by […] Company (stemcell, Cat. No.: #17951C) to obtain human total T cells. […] The activated T cells were adjusted to an appropriate cell density and added to a 96-well flow cytometry plate. After centrifugation, the gradiently diluted sample to be tested was added, and incubated at 4° C. for 30 minutes. Washing was carried out twice with PBS, and a fluorescent secondary antibody diluted to an appropriate concentration was added, incubated at 4° C. for 30 minutes, and washed twice with PBS. […]

[2] = molecular target: T1, human TIGIT expressed on cells; assay: flow cytometry, CHO-huTIGIT cells
From the text: (§1) Specifically, CHO cells overexpressing human TIGIT (CHO-huTIGIT cells), CHO cells overexpressing cynomolgus TIGIT (CHO-cynoTIGIT cells) and CHO cells overexpressing mouse TIGIT (CHO-muTIGIT cells) were generated by transfection of the pCHO1.0 vector (purchased from Invitrogen) with cDNA encoding human TIGIT, cynomolgus TIGIT and mouse TIGIT cloned into the multiple cloning site (MCS), respectively, followed by pressure screening. The overexpressing cells were expanded and adjusted to an appropriate cell density, and added to a 96-well flow cytometry plate. After centrifugation, the cells were added with a gradiently diluted sample to be tested, and incubated at 4° C. for 30 minutes. The cells were washed twice with PBS, and added with a fluorescent secondary antibody correspondingly diluted to an appropriate concentration, then incubated at 4° C. for 30 minutes, and washed twice with PBS. Cells were resuspended with PBS, and detected on a CytoFlex flow cytometer, and the corresponding MFI was calculated. Graphpad software was used for graphical analysis to obtain EC₅₀ values.

[3] = molecular target: T3, cynomolgus TIGIT overexpressed on CHO cells (cynomolgus, UniProt A0A7N9I9V4 89-312); assay: flow cytometry on CHO cells overexpressing cynomolgus TIGIT, median fluorescence intensity PE-A; unit from the concentration axis
T3 construct: whole, on cells; also called CHO-cynoTIGIT cells
T3 sequence (A0A7N9I9V4 entry or part of it): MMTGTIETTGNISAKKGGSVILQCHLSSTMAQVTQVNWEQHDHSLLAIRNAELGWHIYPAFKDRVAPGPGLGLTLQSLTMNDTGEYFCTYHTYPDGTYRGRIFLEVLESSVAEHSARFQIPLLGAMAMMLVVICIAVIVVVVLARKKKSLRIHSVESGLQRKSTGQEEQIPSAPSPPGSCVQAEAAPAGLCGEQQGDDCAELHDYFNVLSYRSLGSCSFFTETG
From the text: as §1

[4] = molecular target: T2, mouse TIGIT overexpressed on CHO cells; assay: flow cytometry, CHO-muTIGIT cells
From the text: as §1

[5] = molecular target: T2, mouse TIGIT overexpressed on CHO cells; assay: flow cytometry, competition with mouse CD155-mouse IgG2a Fc (2 ug/mL) on CHO-muTIGIT cells
Description: The CHO-muTIGIT cells were expanded and adjusted to a cell density of 2×10⁶ cells/mL, added to a 96-well flow plate at 100 μL/well, and centrifuged for later use. The purified antibodies were diluted 3-fold with PBS starting at 400 nM for a total of 12 concentration gradients. […] APC-conjugated goat anti-mouse IgG antibody diluted 100-fold with PBS was added at 100 μL/well, incubated at 4° C. for 30 minutes, and washed twice with PBS. Cells were resuspended with PBS at 100 μL/well, and detected on a CytoFlex flow cytometer, and the corresponding MFI was calculated. Graphpad software was used for graphing analysis to obtain IC₅₀ values.

Row | Binder | EC50 [1] [nM] | EC50 [2] [nM] | EC50 [3] [nM] | EC50 [4] [nM] | IC50 [5] [nM]
1 | anti-TIGIT monoclonal antibody 55796-G1 (antibody, V domains shown, Wild-type human IgG1 heavy chain constant region, human kappa light chain constant region) VH: QLQLQESGPGLVKPAETLSLTCTVSGGSISSYDHYWTWIRQPPGKGLEWIGTVYYSGSTFHNPSLKSRVTIPVDTSKNQFSLKLSSVTAADTAVYYCARVGPDVSHPPFDYWGQGTLVTVSS VL: not shown | 0.106 | 0.96 | 1.32 | 2.96 | 1.5
2 | anti-TIGIT monoclonal antibody 55796-G1LALA (antibody, V domains shown, Human IgG1 heavy chain constant region modified by L234A, L235A; human kappa light chain constant region; HEK293) VH: QLQLQESGPGLVKPAETLSLTCTVSGGSISSYDHYWTWIRQPPGKGLEWIGTVYYSGSTFHNPSLKSRVTIPVDTSKNQFSLKLSSVTAADTAVYYCARVGPDVSHPPFDYWGQGTLVTVSS VL: not shown | 0.0878 | 0.84 | 1.34 | 3.36 | 1.56
